Changes are numbered by the printed parent chain. Names may count otherwise. One block for each molecule: values may come before it. Where no end group is shown, it is not given here. [ ]: non-standard residue; d: D form. pS = N[C@@H](COP(=O)(O)O)C(=O)O
Assays:
[1] = molecular target: SERCA (sarcoplasmic reticulum calcium ATPase); assay: 2D co-crystal frequency, negative-stain EM; settings: sites S16
[2] = molecular target: the molecule itself; assay: cryo-EM structure
[3] = molecular target: the molecule itself; assay: SDS-PAGE

other: crystals per grid square ([1]; reference: non-phosphorylated wild-type PLB): weaker; reference 3.1 ±0.5 (n = 7)
Molecule: phospholamban (PLB) (from UniProt P26678) PKA-phosphorylated wild-type PLB

other: crystals per grid square ([1]; reference: non-phosphorylated K27A PLB): weaker; reference 5 ± 1 (n = 6)
Molecule: phospholamban (PLB) (from UniProt P26678) PKA-phosphorylated K27A PLB

B1: wild-type phospholamban (PLB) (natural protein, human, UniProt P26678 1-52, looked up)
chain: MEKVQYLTRSAIRRASTIEMPQQARQKLQNLFINFCLILICLLLICIIVMLL
stoichiometry N [2]: 5

B2: phosphorylated K27A phospholamban (Ser16, by PKA) (natural protein, human, UniProt P26678 1-52, looked up)
chain: MEKVQYLTRSAIRRA[pS]TIEMPQQARQALQNLFINFCLILICLLLICIIVMLL
modifications: cysteine pairing not given here
stoichiometry N [3]: 5

B3: phospholamban gain-of-function mutant Lys27-to-Ala (K27A) (natural protein, human, UniProt P26678 1-52, looked up)
chain: B1 chain with K27A
stoichiometry N [2]: 5

B4: phosphorylated wild-type phospholamban (Ser16, by PKA) (natural protein, human, UniProt P26678 1-52, looked up)
chain: MEKVQYLTRSAIRRA[pS]TIEMPQQARQKLQNLFINFCLILICLLLICIIVMLL
modifications: cysteine pairing not given here
stoichiometry N [2]: 5

Source: paper PMC3121535 (Journal of molecular biology, 2010)
